Experimental data published in patent US11332512B2, “Peptides and combination of peptides for use in immunotherapy against various tumors” (Immatics Biotechnologies GmbH, priority 2015, dated 2022).

Target: HLA-A*02:01 (Homo sapiens, UniProt P04439, D140Y/D185E/D98H/E176V/E277Q/G131W/G231S/I119V/I121R/I166T/I218V/L300P/L318F/N151K/N90K/P208A/P217A/Q86G/Q94H/R138H/R169H/T345S)
Test: MHC binding assay: UV-ligand exchange with beta2m ELISA (peptide exchange yield)
Conditions: binding to HLA-A*02:01, β2m ELISA
Text: Candidate peptides for T cell based therapies according to the present invention were further tested for their MHC binding capacity (affinity). The individual peptide-MHC complexes were produced by UV-ligand exchange, where a UV-sensitive peptide is cleaved upon UV-irradiation, and exchanged with the peptide of interest as analyzed. Only peptide candidates that can effectively bind and stabilize the peptide-receptive MHC molecules prevent dissociation of the MHC complexes. To determine the yield of the exchange reaction, an ELISA was performed based on the detection of the light chain (β2m) of stabilized MHC complexes. The assay was performed as generally described in Rodenko et al. (Rodenko et al., 2006).
96 well MAXISorp plates (NUNC) were coated over night with 2 ug/ml streptavidin in PBS at room temperature, washed 4× and blocked for 1 h at 37° C. in 2% BSA containing blocking buffer. Refolded HLA-A*02:01/MLA-001 monomers served as standards, covering the range of 15-500 ng/ml. Peptide-MHC monomers of the UV-exchange reaction were diluted 100 fold in blocking buffer. Samples were incubated for 1 h at 37° C., washed four times, incubated with 2 ug/ml HRP conjugated anti-β2m for 1 h at 37° C., washed again and detected with TMB solution that is stopped with […]. Absorption was measured at 450 nm. Candidate peptides that show a high exchange yield (preferably higher than 50%, most preferred higher than 75%) are generally preferred for a generation and production of antibodies or fragments thereof, and/or T cell receptors or fragments thereof, as they show sufficient avidity to the MHC molecules and prevent dissociation of the MHC complexes.

Peptide exchange (MHC class I binding score, peptide exchange yield)	Substance
+++ (= ≥50% = +++)	3 (RVIDDSLVVGV; listed as Homo sapiens) [compound 3]
+++ (= ≥50% = +++)	5 (GLVDIMVHL; listed as Homo sapiens) [compound 5]
+++ (= ≥50% = +++)	7 (ALLQALMEL; listed as Homo sapiens) [compound 7]
+++ (= ≥50% = +++)	10 (QLIEKNWLL; listed as Homo sapiens) [compound 10]
+++ (= ≥50% = +++)	11 (LLDPKTIFL; listed as Homo sapiens) [compound 11]
+++ (= ≥50% = +++)	12 (RLLDPKTIFL; listed as Homo sapiens) [compound 12]
+++ (= ≥50% = +++)	13 (RLHDENILL; listed as Homo sapiens) [compound 13]
+++ (= ≥50% = +++)	16 (SLADLSLLL; listed as Homo sapiens) [compound 16]
+++ (= ≥50% = +++)	21 (YLMDDFSSL; listed as Homo sapiens) [compound 21]
+++ (= ≥50% = +++)	22 (LMYPYIYHV; listed as Homo sapiens) [compound 22]
+++ (= ≥50% = +++)	23 (ALLSPLSLA; listed as Homo sapiens) [compound 23]
+++ (= ≥50% = +++)	24 (KVWSDVTPL; listed as Homo sapiens) [compound 24]
+++ (= ≥50% = +++)	25 (LLWGHPRVALA; listed as Homo sapiens) [compound 25]
+++ (= ≥50% = +++)	26 (VLDGKVAVV; listed as Homo sapiens) [compound 26]
+++ (= ≥50% = +++)	30 (IITEVITRL; listed as Homo sapiens) [compound 30]
+++ (= ≥50% = +++)	31 (GLLETTGLLAT; listed as Homo sapiens) [compound 31]
+++ (= ≥50% = +++)	36 (TVLQELINV; listed as Homo sapiens) [compound 36]
+++ (= ≥50% = +++)	40 (KIWEELSVLEV; listed as Homo sapiens) [compound 40]
+++ (= ≥50% = +++)	41 (IVTEIISEI; listed as Homo sapiens) [compound 41]
+++ (= ≥50% = +++)	44 (AVFNLVHVV; listed as Homo sapiens) [compound 44]
+++ (= ≥50% = +++)	45 (FLPVSVVYV; listed as Homo sapiens) [compound 45]

Peptide exchange (MHC class I binding score, peptide exchange yield)	Substance
+++ (= ≥50% = +++)	47 (GLNGFNVLL; listed as Homo sapiens) [compound 47]
+++ (= ≥50% = +++)	48 (KISDFGLATV; listed as Homo sapiens) [compound 48]
+++ (= ≥50% = +++)	54 (YLVPGLVAA; listed as Homo sapiens) [compound 54]
+++ (= ≥50% = +++)	55 (HLFDKIIKI; listed as Homo sapiens) [compound 55]
+++ (= ≥50% = +++)	58 (HLLGEGAFAQV; listed as Homo sapiens) [compound 58]
+++ (= ≥50% = +++)	59 (ALADGIKSFLL; listed as Homo sapiens) [compound 59]
+++ (= ≥50% = +++)	60 (YLFSQGLQGL; listed as Homo sapiens) [compound 60]
+++ (= ≥50% = +++)	61 (ALYPKEITL; listed as Homo sapiens) [compound 61]
+++ (= ≥50% = +++)	62 (SLVENIHVL; listed as Homo sapiens) [compound 62]
+++ (= ≥50% = +++)	63 (KLLPMVIQL; listed as Homo sapiens) [compound 63]
+++ (= ≥50% = +++)	67 (FLIENLLAA; listed as Homo sapiens) [compound 67]
+++ (= ≥50% = +++)	68 (QLMNLIRSV; listed as Homo sapiens) [compound 68]
+++ (= ≥50% = +++)	75 (ALLDGALQL; listed as Homo sapiens) [compound 75]
+++ (= ≥50% = +++)	76 (FTAEFLEKV; listed as Homo sapiens) [compound 76]
+++ (= ≥50% = +++)	80 (VLTGQVHEL; listed as Homo sapiens) [compound 80]
+++ (= ≥50% = +++)	82 (ILAEEPIYIRV; listed as Homo sapiens) [compound 82]
+++ (= ≥50% = +++)	86 (SLFSNIESV; listed as Homo sapiens) [compound 86]
+++ (= ≥50% = +++)	87 (KLLSLLEEA; listed as Homo sapiens) [compound 87]
+++ (= ≥50% = +++)	88 (LLLPLELSLA; listed as Homo sapiens) [compound 88]
+++ (= ≥50% = +++)	94 (YLDEVAFML; listed as Homo sapiens) [compound 94]
+++ (= ≥50% = +++)	95 (KLIDEDEPLFL; listed as Homo sapiens) [compound 95]

Peptide exchange (MHC class I binding score, peptide exchange yield)	Substance
+++ (= ≥50% = +++)	98 (FVQEKIPEL; listed as Homo sapiens) [compound 98]
+++ (= ≥50% = +++)	99 (TLFGIQLTEA; listed as Homo sapiens) [compound 99]
+++ (= ≥50% = +++)	100 (ALQSFEFRV; listed as Homo sapiens) [compound 100]
+++ (= ≥50% = +++)	108 (FIANLPPELKA; listed as Homo sapiens) [compound 108]
+++ (= ≥50% = +++)	109 (ILGSFELQL; listed as Homo sapiens) [compound 109]
+++ (= ≥50% = +++)	111 (AQLEGKLVSI; listed as Homo sapiens) [compound 111]
+++ (= ≥50% = +++)	112 (ILAQDVAQL; listed as Homo sapiens) [compound 112]
+++ (= ≥50% = +++)	122 (SIIDTELKV; listed as Homo sapiens) [compound 122]
+++ (= ≥50% = +++)	125 (AALEVLAEV; listed as Homo sapiens) [compound 125]
+++ (= ≥50% = +++)	126 (QLREAFEQL; listed as Homo sapiens) [compound 126]
+++ (= ≥50% = +++)	130 (QLYGSAITL; listed as Homo sapiens) [compound 130]
+++ (= ≥50% = +++)	131 (SLYPHFTLL; listed as Homo sapiens) [compound 131]
+++ (= ≥50% = +++)	132 (ALLNNVIEV; listed as Homo sapiens) [compound 132]
+++ (= ≥50% = +++)	136 (LLWDAPAKC; listed as Homo sapiens) [compound 136]
+++ (= ≥50% = +++)	139 (IILENIQSL; listed as Homo sapiens) [compound 139]
+++ (= ≥50% = +++)	140 (FLDSQITTV; listed as Homo sapiens) [compound 140]
+++ (= ≥50% = +++)	143 (MLWESIMRV; listed as Homo sapiens) [compound 143]
+++ (= ≥50% = +++)	144 (FLISQTPLL; listed as Homo sapiens) [compound 144]
+++ (= ≥50% = +++)	145 (ALEEKLENV; listed as Homo sapiens) [compound 145]
+++ (= ≥50% = +++)	147 (GLLSALENV; listed as Homo sapiens) [compound 147]
